Experimental data: patent US20240043859A1, “HERBICIDE-RESISTANT PROTEIN, AND GENE AND USE THEREOF” (QINGDAO KINGAGROOT CHEMICAL COMPOUND CO., LTD., priority 2020, published 2024)

Type: cell-based, Escherichia coli

B1: QYD42: AAD-like enzyme, SEQ ID NO. 83; expressed from vectors pQY2309 (Arabidopsis), pQY2329 (maize), pQY2330 (soybean) (protein)
chain: MQITPIADATFGATVTGLRLATLDDAGFARLHAAWLQHALLVFPGQFLTNAEQIGFAKRFGPIERIGGGDIVAISNVKADGTVRQHSPAEWDDMMKVIVGNMAWHADSTYMPVMAQGAVFSAEVVPPTGGRTCFADMRAAYDALDDATRALVHQRSARHSLVYSQSKLGHVQQAGSAYVGYGMDTTATPLRPLVKRHPETGRLSLLIGRHAHAIPGLEEAESERFLEDLVAWACQPPRVVAHHWTAGDVVLWDNRCLLHRAEPWDFTLPRVMWHSRLAGHPETEAAPLV
modifications: Synthetic polypeptide, QYD42, D42
  Chromogenic reaction of degrading herbicides in bacteria: MCPA: Yes
